Measured values as given in the DeepSol protein solubility set.

assay: soluble on expression in E. coli; label from the status in PepcDB or PDB records

Sequence	soluble on expression in E. coli
MSLAMALFQSAPHSLCILRLSAIGDVCNTIAAVQAIQRQWPQTRITWVTGKLEAELIQSLPDIQVIVFDKKLGWRAYTQLWQQLKSERFDALLHMQYAFRASIATLGIKARYKLGFDAARSQDFQTWFTNVKVPSPDKMHVLDGLLAFVEHLGIRDIEPKWSLTCQPDDLTWAEAQFQPEQPRLVVVPGASKAYKNWTAEGYAAVIEHAQQQGWQVILAGSPAQVERDLAAQVEQALAHPVLNLVGKSTLQQMLALLAKADLVIAPDTGPAHMANAMHTPIIGLYAHHNPERTGPYHYRHYVVSAYQEALLAETGKMPQQVDWRTRVKDPNAMQRITAQQVIAMFERAAADIMATQVNDEGHHHHHH	soluble
MSLAPSPSSSTAPAALQQLGWQARLRWVHGICQGLPKVAQQLDEFLANQTGVVSTAREMQEWREAWVGFQQHKDAWVQACSQALQQAARKPPSQAGESSASGSAPLNFELLSDDVVENKILASRMALAMGETLQPGFEAMRLRMQALEGHELPSRDMFRAETICLHLVEQWLSCGMERKHLLRAVEPLQNALAPLMESEYGILHKLLDAKGVSKAQDAPLRVKRTEGGPPTGAMPLGGASGFGHAAEPGWSSSAMQQFMSAGMAAGIGTEPGIALPPGASAGLGMLARARHRALDAMNQLRQVLSQPAVGIPGLMPGAPLVPMPPASAALAQALQEQQQLMVAELRAQYPAATGSAMAMPAMDYSPAAIDQLVNQVRERSADWKQKAQTTGEKATIEVVALMFQSILSEDRLPPSIRVWFARLQVPVLRVALAEPQFFSDLNHPARKLIDRMGSCVMGFDASSINGNALETEIRRVVQVIEQYPETGQKVFALVLREFEAFLTKHFAQNRSTAKITSVAQQVEQKETLAIQYTIELRNMLTDMPVREEVRDFLFKSWADVLAMATVRYGAKDARAMRFKQAASELVWSASAKPSRQERARVIQGLPTLLQTLREGLELVSVTGDAQSTAIKVLTDTLAQAFMSKTAAIPAERIEAMAKRLSELEKYISEDGKLDDMPLSSESIELMLGVDAGDLNVIPNTDSPVEPAMLEWARSLESGRWFTLDHNGSRVQVQYVWHSRRRHLHLFASLDGHCYLLQAQRMATYLQAGLLAVHDAEALTVRATRDALQKIQANPEREGHHHHHH	soluble
MSLAQEDLLAKGEYLTRAANCVACHTVPGGQPFAGGVEFKLPFGSLFSPNITPDPQTGIGAWTDDEFVSALQTGIGRDGKHYYPAFPYTSYSKMSRDDILAIKGYLDSLQPVEQAPRENHIGFPFNQRWGMVFWNLLFLNDEPFQADSQRSAEWNRGKYLVEGPGHCGECHSPRNLFQAVSSERSLAGNLIQGWNAYNISADPVHGIGAWPTDVLAGYLKDGAAPGLGLSSGPMAEVVENSLRHLTDADRQAIAVFLKDSPPRSEGVPRPQQVTLAEPGSGSALGNKLFAEACASCHRWDGTGNQSQTAMLLGLKTVNDPAASNLLGILLSGHGAADAPVNRRMPSFGNIYTDQELAALSSFMLQRFGESGAQVSVPAVAKRRTESLHEGHHHHHH	not soluble
MSLAQKVKLSTIAETLGLSTATVSLALRDSPLVAAVTRDKIKEQARALGYIYNRRAASLRTSRSGIIGVVVHDIMNPFYGEILKAIEAELDRDKQTFILSNHYDSVEKQRDFIETLLQLGGDGVIMSPAIGTPPQDIQLAEDNGMPAILIARSIEGLDVPIFRGDDAYGISLATNHLIGLGHRCIAMVGGTDQTSTGRDRYQGYVNALRKANIEVDPDLRIPGPRSKQGGFEAAVHLLSLPQKPTAVVCWNDLVAIGMMNGIARAGLVPGVDISVTGYDDLEEASIATPALTTVWNGQAEVGRSAARALLDKLSGSHEPDGIHLIKPEMRIRQSTGPLRVTEGHHHHHH	soluble
MSLAQSVAGSSVLTPGLTVSGPHSHARHSATLPSAMTAFPAAPDLAPPSRAAQGERVLCAMSGGVDSSVTASLLKEQGYQVIGAMMRFWPDDKRTDTFDSCCSPDAAYEARRVAEQVGVPFYLLDYREPFQRHIVGPFLEEYARGRTPNPCVNCNTKVKFDELVKKAKMLGCRYVATGHYVKRVDNAQGEVEFHRGDDPRKDQTYFLWGTPRDALPYILFPVGELEKPQVREIAAERGLLTAQKPESQNICFVPGKVQDFVAEHLPQAQGYIREIATGEVVGEHLGTQFYTLGQKKGLGLYQSHRVRHVVHLDPDSNTVWVGDYDDCLWTGLKATDANYLLDLAELPTELEVQVRYRTAPVKAHVLHADAEGFELEFAEPQFAVAPGQSAVLYAGSRLLGGGLIADHARELPALTEGHHHHHH	soluble
MSLARPDELMFAPLGGVGEIGMNLSIYGLGNRHQRSWLAVDLGVSFGDEEHLPGIDLIMPDVRFLEKERKNLVGLVLTHAHEDHFGAIIELWPRLKCPIYATKFSAALFEAKCAAERNPPDIPVTVVPSGDRIDLGPFGVEFVPVAHSIPESHALAIHTAAGIVVHTGDWKIDPTPIVGPPTDERRLRELGDEGVLALIGDSTNAVRDGRSPSETEVAKTIAELVKAARGRVAVTTFASNVGRLRAVADAARAAGREVVVVGRAMERVVQVARETGHLDGMQELRSADVYGHLPSDKVLALCTGSQGEPRAALARIAKDDHPQVTLNRGDTVIFSSRTIPGNERAVGAIINGLVTQGIKVITDRTELVHVSGHPRRDELRDMIAWVRPQLLIPVHGEALHLSEHAQLARAAGVPKVLICKNGDLVRLGPEGHHHHHH	soluble
MSLARSMTTGRSGTIGVVVGDIENPFFSLAVRGITDVARQAGFTVILINSGEDAAAEKAAIRTLLAKRVDGLIVSPAKENDVEHLHEVIRSGLPLALLDRGSDTLEVDTVLADDRYTAENVTSRLIALGHRRIAYLTACDTPDHRFRTPQDISTGSVRRRIEGYLAVCREAGFIGMEDWVKVGAVTPERTHRIVIETLQSGHRPTAIIASDSIIGLEVFKAHRELGLNIPGDLSLVSFHDADWTSVTTPPVTVVRQPVYELGATAARLLVERLNGEDRAARKVVLKNEVVERASTRAIEGHHHHHH	soluble
MSLARSRARVETIAELERTNAALQQALDENAALHAQLLVQAREAGVADERRRLAAEIHDTLAQGLTGIIAQLQVVAAAPDPALGREHLDRALALARHSLGEARRSVHNLSPVALAEDGLPDALKKTVTEWGARTGVQARFTVTGTAEHLHDEVAATLLRIAQEALSNTARHAAADRVGVTLSYMGDEVTLDIRDDGRGFDPLTARECGPGGGFGLDGMRARAERIAGSLTVEAEPGHGTAVSARVPLVRHDREGHHHHHH	soluble
MSLARTEKIYIYGASGHGLVCEDVAKNMGYKECIFLDDFKGMKFESTLPKYDFFIAIGNNEIRKKIYQKISENGFKIVNLIHKSALISPSAIVEENAGILIMPYVVINAKAKIEKGVILNTSSVIEHECVIGEFSHVSVGAKCAGNVKIGKNCFLGINSCVLPNLSLADDSILGGGATLVKNQDEKGVFVGVPAKRMEGGSHHHHHH	soluble
MSLARVELHVHLDGAVGVEELYNISVKRRLQLPGGVKSAAELQAYIIRISPAWHRFDVVNDIIGGDEAVIRDVAEGFVGRQARAGIVYTEVRYDPERLSRSGLANVSISRQAAVRAVRDGLRVGAEKHGVVAYQILCAMRGKSAEQCMATATLAAQMRSTSMGGVVGLDLAGDEVTYRNAPYVGCLRYAKRDLRLNITVHSGEFTETPADEVRSAVVDMGADRVGHGYAAVRNAATLSLVKERLIHVEACPRSAQLHGDLDALDEYRRAQLNFGLNTDDPSVFFGNGTIALDEAIVQDVLHYSVDEVRNAYANALSAAFGPTSAIPGLLRGSAPIVVEGHHHHHH	soluble
MSLASFPHRNLTWNDINFVHTTDTHGWYSGHINQPLYHANWGDFISFTTHMRRIAHSRNQDLLLIDSGDRHDGNGLSDITSPNGLKSTPIFIKQDYDLLTIGNHELYLWENSKQEYETVVNHFQDKYVCSNVDIRLDNGLFVPLGLKYKYFTTPIRGIRVMAFGFLFDFKRFNSGTRVTPMAETIHEPWFQEALKHEVDLIIIVGHTPISHNWGEFYQVHQYLRQFFPDTIIQYFGGHSHIRDFTVFDSLSTGLQSGRYCETVGWTSVNLDKADLNLPVRQRFSRSYIDEGHHHHHH	not soluble
MSLASPDWQDQIIYFLMIDRFNDGDSALNDQGQNEFDPTSDKKFSGGDLVGVSDKLSYIEDLGATSIWITPPVANQWWDAEQNYGGYHGYWARDFQKVDEHFGDMESYQALAREVHARNMFLIQDIVTNHVGNFFTYDDPYSYDPSLPCQGFRLIKNALPAGQELPYPLNMNECKTDGTGSYHWTPTITDHNDPVQEKTWQLSDLDDLNTSDPEVRAYLKESYRKWIREVGVDGFRIDTVKFVEHDFWSDFLHADDGVMTQAVDTGRDNFLTFGEVFETSTPYHTEGEEKMLTYIGESGSPKQLTSVLNFPLQATMTRVFASGQPTDYLRFRLEKMMEMFPNPYIMPNFIDNHDMPRFLSQGSVNDMKQALITMMSVPGIPVIYQGTEQAMSAARDAMFAGGYREDGNYVDSFDQNSEMYLFIQELAKLRTENKVMTRGEIKVIGSDKAGAGVFAFTRTLDNDEVLVVMNTSNSPMLMNQLDVEQAGGTVFKQQIMSNWADAPEQLVADENGHVTLELPAKSAVIYSKTSSNQSVNTPDLNIQLAQDWEGKTITGDIVIAGSANANEKLNLVVDGNLETAQTITVGADGQFSVTLSTRHFAIGEQQHRFAIYSTEKKAGIEDVNFVSNLSWSNTPDDTIDDAGDAQDGVGGPNGNYSLPTDPTFDKDNSQLAINKAEVFTVGSNVRLTFTMDKITDTWLPPNGFDHVGFTIFIDLPEEAATNLSELPKINASMPNGTWSRNAVVFGWQSSIYNTKGANATTWGEAVTPAPTVTVDKANNTISMDFASDALGRPESLDGIRFYVTTWDLDGLSATYRPLEQDKGPWNFSGGASDESKIWDDLPIITLSEGHHHHHH	not soluble
MSLATIYDVAKAAGVSPKTVSRVLNDDAPVNESTRQAVNEAIAALDYLPSQAARMMRSSRSRLIGLITGAISQEIGPAVQSGLPEMNIVQAIQREMSAQGKILMISDTGGRADAAPVLARTFAQHRVEGLIYVADHHREIEMDLTSGNCPVVLVNCYDAAATPCVLPDDEAGEAALVARLIEAGHRRIGFLPPDRTQPAARLRLDGYRTALAAAGLAYDPDLVAHVHDPDADRARALLTEALDALLSLDAPPSVICCTNDEMAMRLYGLLRSRGLRVPDDISVAGYDDHKTISEMLYPQLTTVVLPYSEMGRQAARLMLELIEGKPLASPGPTLVDGPVVWRSSVTEGHHHHHH	soluble
MSLATYETFAAVYDAVMDDTLYAKWTDFSLRHFPKGKKKLLELACGTGIQSVRFAQAGYAVTGLDLSGDMLKLAKKRATSAHQSIQFIEGNMLDLSNVGKYDLITCYSDSICYMQDEVEVGDVFIEVYKALEENGVFIFDVHSTYQTDKVFPGYSYHENADDFAMVWDTYEDDAPHSIVHELTFFVQEEDGRFTRHDEVHEERTYDILTYDILLEQAGFKDVKVYADFEDKKPTATSARWFFVAHKEGHHHHHH	soluble
MSLAVEAVIWDFGGVFTTSPFEAFRRYETERGLPKDFIRTVNATDPDANAWARFERAEIDAAAFDGLFRQEALRLGHDVRGADVLPLLYGDLRPSVMAALKTCKAQFKVGCITNNVPTGHGPGMAQSAEKALAVGEIMALFDAVIESSKAGVRKPDPRIYQMMCELLGVAPEACIYLDDLGINCKPAAALGMTAIKVSDERQLLDDLAKATGLAFEGHHHHHH	soluble
MSLAVGKYTQLISDLLQSVSIVDALPRGAAQAGILCQDTKEVLESENTVLEIAIPRQDNLVIVGDIHGQFADMLSNVLSIQLNLNNTKATDGRGSPSTEIYKFLFLGDYVDRGPQSLEVITLLFALKVEYPEHIFLLRGNHEEAQTSRLYGFFQECKSKLEGTGDRGPASVDITSSTWLQYNTVFCWLPLAAVVACPSGMFFCTHGGLSPHTLSVPLLRSLRRNEYGMVDDFEDTFYTPTSRGGDDMLEGPGAKARLVIDGLLWSDPEDQVSGCQMNNRGCGFIFGPDVTRSFLDRNYSYGFPPSKRQLIGEMKPGMQFILRGHQCAREGYMWCHGGLVLTLFSAPNYCGMHGNKGAVALLRGQVQAGKDRVELEFNVYDTVVRGGSDNLVACLSPFAFAHYFSGDSEGHHHHHH	not soluble
